Measurements published in the supplement of paper PMC7877785.
± gives the uncertainty stated by the source.

Assay: self-splicing fitness, log relative to wild type (ln ratio); higher = more splicing; Tetrahymena group I intron in knt gene, E. coli kanamycin selection, DiMSum; sequences stand for … in CUCUCU…GGAGGGAAAAGUUAUCAGGCAUGCACCUGGUAGCUAGUCUUUAAACCAAUAGAUUGCAUCGGUUUAAAAGGCAAGACCGUCAAAUUGCGGGAAAGGGGUCAACAGCCGUUCAGUACCAAGUCUCAGGGGAAACUUUGAGAUGGCCUUGCAAAGGGUAUGGUAAUAAGCUGACGGACAUGGUCCUAACCACGCAGCCAAGUCCUAAGUCAACAGAUCUUCUGUUGAUAUGGAUGCAGUUCACAGACUAAAUGUCGGUCGGGGAAGAUGUAUUCUUCUCAUAAGAUAUAGUCGGACCUCUCCUUAAUGGGAGCUAGCGGAUGAAGUGAUGCAACACUGGAGCCGCUGGGAACUAAUUUGUAUGCGAAAGUAUAUUGAUUAGUUUUGGAGUACUCGUGGUCG
Procedure, shortened: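 Colonies from six replicate transformations of E. coli BL21(DE3) were pooled and amplicon-sequenced on an Illumina HiSeq 2500. The library placed an intron with all eight P1ex-region nucleotides randomised inside the knt kanamycin-resistance gene on pET-22b(+), and cells grew overnight at 37°C or 30°C on LB agar with or without 25 μg/mL kanamycin (plus 100 μg/mL carbenicillin, 50 μM IPTG, 0.2% rhamnose). Fitness is the DiMSum error-weighted combination of wild-type-normalised replicate fold changes, kanamycin versus none.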

| Sequence | self-splicing fitness (ln) (30 °C) | self-splicing fitness (ln) (37 °C) |
| --- | --- | --- |
| GAUAAGCAAUAUUACGGCAC | -0.252 ± 0.15 | -0.637 ± 0.17 |
| GAUAAGCAAUAUUACGGCCC | -0.576 ± 0.19 | -0.0157 ± 0.28 |
| GAUAAGCAAUAUUACGGCUU | -0.701 ± 0.1 | -0.0417 ± 0.14 |
| GAUAAGCAAUAUUACGGUGC | -2.8 ± 0.19 | -2.17 ± 0.22 |
| GAUAAGCAAUAUUACGUAAC | -1.22 ± 0.1 | -0.811 ± 0.16 |
| GAUAAGCAAUAUUACGUAAG | -2.38 ± 0.088 | -0.896 ± 0.11 |
| GAUAAGCAAUAUUACGUCCC | -0.291 ± 0.2 | -0.349 ± 0.25 |
| GAUAAGCAAUAUUACGUCGC | -1.76 ± 0.22 | -1.17 ± 0.27 |
| GAUAAGCAAUAUUACGUGGC | -3.32 ± 0.21 | -2.24 ± 0.27 |
| GAUAAGCAAUAUUACGUGUG | -1.96 ± 0.079 | -0.282 ± 0.094 |
| GAUAAGCAAUAUUACGUUGG | -3.89 ± 0.21 | -2.87 ± 0.25 |
| GAUCAGCAAUAUUACGAACC | -0.755 ± 0.19 | -1.48 ± 0.28 |
| GAUCAGCAAUAUUACGAGCG | -1.37 ± 0.08 | -0.0351 ± 0.097 |
| GAUCAGCAAUAUUACGAUCA | -0.53 ± 0.13 | -0.636 ± 0.097 |
| GAUCAGCAAUAUUACGCCUA | 0.00222 ± 0.13 | 0.0251 ± 0.12 |
| GAUCAGCAAUAUUACGCGGU | -2.98 ± 0.16 | -1.85 ± 0.24 |
| GAUCAGCAAUAUUACGCGUC | -2.9 ± 0.18 | -3.33 ± 0.4 |
| GAUCAGCAAUAUUACGGACA | -0.118 ± 0.089 | 0.127 ± 0.11 |
| GAUCAGCAAUAUUACGGAGC | -1.86 ± 0.094 | -0.552 ± 0.099 |
| GAUCAGCAAUAUUACGGAUA | -0.42 ± 0.067 | 0.0803 ± 0.077 |
| GAUCAGCAAUAUUACGGGAG | -1.64 ± 0.068 | -0.581 ± 0.086 |

| Sequence | self-splicing fitness (ln) (30 °C) | self-splicing fitness (ln) (37 °C) |
| --- | --- | --- |
| GAUCAGCAAUAUUACGGGAU | -3.01 ± 0.12 | -1.18 ± 0.11 |
| GAUCAGCAAUAUUACGGGCG | -0.25 ± 0.095 | -0.511 ± 0.13 |
| GAUCAGCAAUAUUACGUAAA | -0.582 ± 0.079 | 0.169 ± 0.099 |
| GAUCAGCAAUAUUACGUCGG | -4.18 ± 0.3 | -2.39 ± 0.2 |
| GAUCAGCAAUAUUACGUCGU | -0.403 ± 0.079 | -0.669 ± 0.1 |
| GAUCAGCAAUAUUACGUCUA | -0.327 ± 0.071 | 0.145 ± 0.086 |
| GAUCAGCAAUAUUACGUUAU | -1.46 ± 0.07 | -0.207 ± 0.092 |
| GAUCAGCAAUAUUACGUUCG | -1.33 ± 0.063 | 0.136 ± 0.073 |
| GAUGAGCAAUAUUACGAAGA | -3.25 ± 0.17 | -0.937 ± 0.14 |
| GAUGAGCAAUAUUACGAAGU | -2.87 ± 0.22 | -2.84 ± 0.28 |
| GAUGAGCAAUAUUACGACCC | -0.245 ± 0.34 | -0.0127 ± 0.3 |
| GAUGAGCAAUAUUACGACCU | -1.4 ± 0.18 | -1.36 ± 0.16 |
| GAUGAGCAAUAUUACGAGAG | – | -3.01 ± 0.29 |
| GAUGAGCAAUAUUACGAUGA | -2.24 ± 0.2 | -2.79 ± 0.27 |
| GAUGAGCAAUAUUACGCAAG | -2.46 ± 0.38 | -1.51 ± 0.36 |
| GAUGAGCAAUAUUACGCCCA | -1.17 ± 0.23 | 0.487 ± 0.28 |
| GAUGAGCAAUAUUACGCCGU | – | -2.33 ± 0.46 |
| GAUGAGCAAUAUUACGCCUC | -2.56 ± 0.36 | -1.01 ± 0.38 |
| GAUGAGCAAUAUUACGCGAC | -1.69 ± 0.17 | -0.921 ± 0.15 |
| GAUGAGCAAUAUUACGUCAG | -3.78 ± 0.32 | -2.31 ± 0.26 |
| GAUGAGCAAUAUUACGUCUA | -1.51 ± 0.31 | -1.2 ± 0.25 |
